Source: the supplement of paper PMC9732359
± gives the uncertainty stated by the source.

Experiment: protein stability index of a GFP-peptide fusion (yeast GPS) (PSI 1-4); higher = more stable; sorted into four equal gates, so the index is relative within each strain
Procedure, shortened: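 Mid-log yeast cultures in leucine-free medium, carrying a pooled plasmid library, were sorted into four equal gates by their GFP/Cherry fluorescence ratio. Each plasmid expressed Cherry along with GFP fused upstream of a tiled 17-residue yeast protein peptide. Plasmids recovered from each gate were PCR-amplified and Illumina-sequenced, with reads assigned to strains by barcodes. The protein stability index was obtained by summing each gate's read frequency weighted by its gate number.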

| Sequence | protein stability index (doa10∆) | protein stability index (pdr5∆) | protein stability index (san1∆) | protein stability index (ubr1∆) |
| --- | --- | --- | --- | --- |
| LNRIINHMLIDSLNQLE [RGR1] | 3.24 ± 0.15 | 2.96 ± 0.23 | 2.89 ± 0.18 | 2.68 ± 0.19 |
| LNRLLRLIVDPNIADYI [PRP8] | 1.83 ± 0.057 | 1.93 ± 0.05 | 1.64 ± 0.091 | 1.95 ± 0.044 |
| LNTFGSKICLSHFSLDQ [ITC1] | 2.48 ± 0.06 | 2.18 ± 0.042 | 2.09 ± 0.095 | 2.33 ± 0.039 |
| LNTLNNVVEIWVFSYLR [SIR3] | 1.56 ± 0.043 | 1.6 ± 0.063 | 1.42 ± 0.11 | 1.58 ± 0.053 |
| LPAAVSKSLQESGDTQE [RPC82] | 2.37 ± 0.096 | 2.74 ± 0.11 | 2.97 ± 0.059 | 2.83 ± 0.093 |
| LPDPKPLPLDLNVQVWH [ITC1] | 2.8 ± 0.064 | 2.72 ± 0.051 | 3.01 ± 0.063 | 2.55 ± 0.038 |
| LPEILNVLCVNIKSNDF [ECM29] | 1.56 ± 0.046 | 1.58 ± 0.047 | 1.37 ± 0.088 | 1.58 ± 0.035 |
| LPELWALLNFVLPKIFN [SNF2] | 2.38 ± 0.074 | 1.89 ± 0.062 | 2.07 ± 0.098 | 1.51 ± 0.038 |
| LPENIILTSLMRSKLEK [CSN9] | 2.38 ± 0.084 | 3.05 ± 0.063 | 2.78 ± 0.061 | 2.7 ± 0.048 |
| LPHITQLEGFESRKAFF [RPB2] | 2.92 ± 0.082 | 2.96 ± 0.06 | 3.08 ± 0.052 | 3.12 ± 0.041 |
| LPLATQQQVLNKLRQQA [SNF5] | 2.56 ± 0.27 |  |  |  |
| LPLISTDVLEISKQRTF [YMR129W/POM152] | 2.17 ± 0.068 | 2.74 ± 0.06 | 2.46 ± 0.062 | 2.51 ± 0.049 |
| LPLLILENSSRSPRVVT [NUT1] | 1.76 ± 0.054 | 2 ± 0.046 | 2.258 ± 0.015 | 1.94 ± 0.039 |
| LPLTEHKSPNLSLMLES [SRB4] | 2.43 ± 0.066 | 3.18 ± 0.06 | 2.39 ± 0.11 | 2.75 ± 0.06 |
| LPMDTNLFKINSIDVPI [YMR129W/POM152] | 1.98 ± 0.048 | 1.92 ± 0.035 | 2.49 ± 0.062 | 1.95 ± 0.045 |
| LPPPPPPPGLDELETKA [PRP8] | 3.13 ± 0.056 | 3.15 ± 0.057 | 3.25 ± 0.05 | 3.17 ± 0.05 |
| LPQSEWKAPSSIVLDSE [DIS3] | 3 ± 0.062 | 3.34 ± 0.069 | 3.14 ± 0.052 | 3.15 ± 0.05 |
| LPRKEVDDVLGGGWDNV [RPC11] | 3.17 ± 0.1 | 3.63 ± 0.14 | 3.26 ± 0.066 | 3.32 ± 0.099 |
| LPSGRQDGVLLVALSNE [FAS2] | 2.4 ± 0.087 | 2.52 ± 0.097 | 2.44 ± 0.091 | 1.91 ± 0.13 |
| LPVKWETTTQFKATHIL [FAS1] | 2.52 ± 0.06 | 2.32 ± 0.057 | 2.23 ± 0.063 | 2.34 ± 0.04 |
| LQCHISGTTNFMRNGLL [UBP6] | 1.64 ± 0.1 | 1.66 ± 0.081 | 1.81 ± 0.15 | 2.31 ± 0.17 |
| LQEKISTELNNKQYELF [SWI1] | 2.51 ± 0.077 | 2.74 ± 0.072 | 2.52 ± 0.062 | 2.77 ± 0.059 |
| LQFHVATYMDNDIAGQP [RPO21] | 2.6 ± 0.07 | 2.53 ± 0.073 | 2.6 ± 0.053 | 2.66 ± 0.056 |
| LQFRPAPMYILDEVDAA [SMC2] | 1.59 ± 0.2 | 1.89 ± 0.25 |  | 1.89 ± 0.1 |
| LQGQMEKIMILLVPLAL [CSN12] | 1.84 ± 0.048 | 1.63 ± 0.04 | 1.3 ± 0.074 | 1.52 ± 0.045 |
| LQNKSFKSVLPIVLLNT [UBP6] | 1.91 ± 0.067 | 1.45 ± 0.1 | 1.87 ± 0.12 | 2.1 ± 0.072 |
| LQNLQRIIRKKIFIAVV [RRI2] | 1.21 ± 0.078 | 1.19 ± 0.073 |  | 1.16 ± 0.091 |

| Sequence | protein stability index (doa10∆) | protein stability index (pdr5∆) | protein stability index (san1∆) | protein stability index (ubr1∆) |
| --- | --- | --- | --- | --- |
| LQPFWFRVNNASINTSA [ECM29] | 1.66 ± 0.1 | 1.49 ± 0.068 | 1.26 ± 0.16 | 1.49 ± 0.071 |
| LQPPKTSSRGRDHKSYS [SMC4] | 2.9 ± 0.056 | 3.21 ± 0.061 | 3 ± 0.071 | 2.86 ± 0.049 |
| LQQQQQVVTTVASQSPH [SNF6] | 1.81 ± 0.08 | 1.92 ± 0.074 | 2.03 ± 0.11 | 2.25 ± 0.049 |
| LQRHLSLGIRPCLRKYE [RRP43] | 2.61 ± 0.061 | 2.66 ± 0.063 | 2.82 ± 0.075 | 3.08 ± 0.053 |
| LQRPTATDEESVRLQRF [CSN12] | 2.75 ± 0.089 | 2.98 ± 0.12 | 2.97 ± 0.1 | 3.16 ± 0.1 |
| LQSLNESKDLLRASFNK [SRB4] | 3.16 ± 0.13 | 3.32 ± 0.13 | 2.98 ± 0.083 | 3.48 ± 0.075 |
| LQVGDVVSTTAVIESVV [FAS1] | 2.33 ± 0.056 | 1.59 ± 0.056 | 2.04 ± 0.091 | 2.01 ± 0.049 |
| LRAAQQQWGNDFYKRDP [FAS2] | 2.44 ± 0.068 | 2.77 ± 0.051 | 2.32 ± 0.12 | 2.71 ± 0.047 |
| LRDDTLPKAWISLAVEG [COR1] | 2.55 ± 0.059 | 1.9 ± 0.08 | 1.78 ± 0.12 | 1.44 ± 0.037 |
| LREKEDKKNSSDPNNQS [YJL039C/NUP192] | 3.06 ± 0.11 | 3.09 ± 0.13 | 3.17 ± 0.099 | 3.33 ± 0.071 |
| LRFGEGASGEERLMSRP [PUP2] | 3.52 ± 0.15 | 3.36 ± 0.12 | 3.21 ± 0.1 | 3.23 ± 0.065 |
| LRHMPLASIPDIFITPT [SSN2] | 1.78 ± 0.054 | 1.69 ± 0.054 | 1.47 ± 0.068 | 1.61 ± 0.043 |
| LRKQKDSSTTSSNSQQS [ITC1] | 3.12 ± 0.059 | 3.04 ± 0.066 | 3.07 ± 0.06 | 3.19 ± 0.059 |
| LRRSGQIANDPSKKRRR [SMD1] | 2.58 ± 0.078 | 3.01 ± 0.15 | 2.73 ± 0.086 | 3.23 ± 0.1 |
| LRSDFYILANHYLSRVL [YJL039C/NUP192] | 2.81 ± 0.054 | 2.85 ± 0.07 | 2.59 ± 0.07 | 2.44 ± 0.044 |
| LRSKLFQFKLLQSNSKL [SMC4] | 1.84 ± 0.056 | 1.79 ± 0.053 | 1.59 ± 0.079 | 2.23 ± 0.037 |
| LSALNSEISSLKGKINN [SMC1] | 3.03 ± 0.09 | 3 ± 0.092 | 3.08 ± 0.064 | 3.06 ± 0.075 |
| LSDIETAVNGIDTDLFG [YGL172W/NUP49] | 3.11 ± 0.079 | 3.16 ± 0.086 | 3.2 ± 0.062 | 3.19 ± 0.055 |
| LSDLSSPVQDWNLLRSL [YML103C/NUP188] | 3.29 ± 0.14 | 3.07 ± 0.17 | 2.86 ± 0.1 | 2.65 ± 0.14 |
| LSDYEVLKFLTDLEKKH [RPC17] | 3.38 ± 0.13 | 3.23 ± 0.12 | 3.08 ± 0.086 | 3.11 ± 0.13 |
| LSDYIPGPYPNEQAARA [CYT1] | 2.1 ± 0.054 | 2.54 ± 0.05 | 2.4 ± 0.063 | 2.39 ± 0.05 |
| LSEEETLLVIRRLHKVL [SNF2] | 1.7 ± 0.086 | 2.22 ± 0.07 | 1.84 ± 0.11 | 2.21 ± 0.053 |
| LSERKAEKAEIRKRRAS [RPS6A] | 3.44 ± 0.17 | 3.06 ± 0.23 | 3.24 ± 0.13 | 3.36 ± 0.14 |
| LSGIIQDIYYLAQTLKL [RRI2] | 1.54 ± 0.081 | 1.66 ± 0.14 | 1.14 ± 0.092 | 1.04 ± 0.093 |
| LSGLSADKPFTRLTAYQ [YML031W/NDC1] | 2.95 ± 0.058 | 3.14 ± 0.06 | 2.95 ± 0.058 | 2.97 ± 0.063 |
| LSIICVGGHNVTIREQI [SIR3] | 2.22 ± 0.069 | 1.65 ± 0.042 | 1.78 ± 0.092 | 1.81 ± 0.056 |
